Laboratory results from publication PMC2172650 (The Journal of Cell Biology, 2003).

Legend:
[1] = molecular target: T1, h-γ appendage (residues 704–822), 6xHis (human, UniProt O43747 704-822); assay: ITC
T1 sequence (looked up): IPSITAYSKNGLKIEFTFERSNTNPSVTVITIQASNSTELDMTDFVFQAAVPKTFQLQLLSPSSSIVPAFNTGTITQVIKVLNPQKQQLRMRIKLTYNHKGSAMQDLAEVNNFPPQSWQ

[2] = molecular target: T2, h-β2 appendage (residues 700–937), 6xHis (human, UniProt P63010 700-937); assay: ITC
T2 sequence (looked up): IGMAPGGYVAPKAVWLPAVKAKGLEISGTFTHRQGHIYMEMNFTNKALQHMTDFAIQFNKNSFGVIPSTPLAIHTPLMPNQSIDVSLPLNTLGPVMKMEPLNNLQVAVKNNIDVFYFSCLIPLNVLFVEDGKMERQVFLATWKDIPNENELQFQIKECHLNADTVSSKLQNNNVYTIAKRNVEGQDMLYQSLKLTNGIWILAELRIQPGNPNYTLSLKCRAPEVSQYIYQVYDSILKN

stoichiometry N [1]: 2 appendage domains per epsinR N3 | stoichiometry N [2]: 2 appendage domains per epsinR N3
B1: epsinR N3 construct (291–426), GST cleaved (domain or fragment, human, UniProt Q14677 291-426, looked up)
chain: AHYTGDKASPDQNASTHTPQSSVKTSVPSSKSSGDLVDLFDGTSQSTGGSADLFGGFADFGSAAASGSFPSQVTATSGNGDFGDWSAFNQAPSGPVASSGEFFGSASQPAVELVSGSQSALGPPPAASNSSDLFDL
